In the Immune Epitope Database (IEDB) one finds IC50 and Kd data, which are given here for 10 sequences.

The target of test [1] is HLA-A*02:01. The experiment in a line: IEDB peptide-MHC binding, cellular MHC/competitive/fluorescence; ≥ and ≤ were set here for values at or beyond the usual limits of such assays.
The target of test [2] is HLA-A*25:01. The test can be described thus: IEDB peptide-MHC binding, purified MHC/competitive/fluorescence; ≥ and ≤ were set here for values at or beyond the usual limits of such assays. The settings on record: source organism: Mus musculus.
Test [3] concerns the target HLA-A*01:01. Described as above. Conditions: source organism: Mus musculus.
In test [4] the target is HLA-A*30:01. The test can be described thus: IEDB peptide-MHC binding, purified MHC/competitive/radioactivity; filed as Kd, often an IC50 or EC50 that approximates it; ≥ and ≤ were set here for values at or beyond the usual limits of such assays. Conditions: source organism: Vaccinia virus WR.
Test [5] has as its target HLA-B*58:01. The test can be described thus: IEDB peptide-MHC binding, purified MHC/direct/fluorescence; filed as Kd, often an IC50 or EC50 that approximates it; ≥ and ≤ were set here for values at or beyond the usual limits of such assays. The settings on record: source organism: Variola virus.
For test [6], the target named is HLA-B*07:02. Described as above. Conditions: source organism: Camelpox virus M-96.
The target of test [7] is HLA-B*48:01. The test is described as above. Conditions: source organism: Camelpox virus M-96.
Test [8] deals with HLA-A*31:01. Described as above. The settings on record: source organism: Camelpox virus M-96.
For test [9], the target named is HLA-A*11:01. The test is described as above. The settings on record: source organism: Camelpox virus M-96.
Test [10] has as its target HLA-B*08:02. The test is described as above. The settings on record: source organism: Variola virus.
The target of test [11] is HLA-B*46:01. The description is as above. Conditions: source organism: Camelpox virus M-96.
For test [12], the target named is HLA-A*03:01. The test is described as above. Conditions: source organism: Camelpox virus M-96.
Test [13] deals with HLA-B*40:01. The description is as above. The settings on record: source organism: Camelpox virus M-96.
The target in test [14] is HLA-A*69:01. The description is as above. The settings on record: source organism: Camelpox virus M-96.
The target in test [15] is HLA-B*15:17. Described as above. Conditions: source organism: Camelpox virus M-96.
The target of test [16] is HLA-A*68:02. Described as above. The settings on record: source organism: Camelpox virus M-96.
Test [17] concerns the target HLA-B*57:01. The test can be described thus: IEDB peptide-MHC binding, purified MHC/competitive/fluorescence; filed as Kd, often an IC50 or EC50 that approximates it; ≥ and ≤ were set here for values at or beyond the usual limits of such assays. The settings on record: source organism: Vaccinia virus WR.
Test [18] has as its target HLA-A*02:01. The test is described as above.
The target of test [19] is HLA-B*35:01. The description is as above. Conditions: source organism: Vaccinia virus WR.
In test [20] the target is HLA-B*15:01. The test is described as above.
Test [21] addresses HLA-A*02:03. The description is as above.
For test [22], the target named is HLA-A*26:02. Described as above. Conditions: source organism: Vaccinia virus WR.
Test [23] concerns the target HLA-A*26:01. Described as above.
The target in test [24] is HLA-A*01:01. The test is described as above. The settings on record: source organism: Vaccinia virus WR.
The target of test [25] is HLA-A*26:03. The test is described as above.
Test [26] concerns the target HLA-B*27:05. Described as above. The settings on record: source organism: Vaccinia virus WR.
For test [27], the target named is HLA-A*02:06. Described as above.
Test [28] addresses HLA-C*04:01. The test can be described thus: IEDB peptide-MHC binding, purified MHC/direct/fluorescence; filed as Kd, often an IC50 or EC50 that approximates it; ≥ and ≤ were set here for values at or beyond the usual limits of such assays.
Test [29] has as its target HLA-A*80:01. Described as above.
The target of test [30] is HLA-B*39:01. The test can be described thus: IEDB peptide-MHC binding, purified MHC/competitive/fluorescence; filed as Kd, often an IC50 or EC50 that approximates it; ≥ and ≤ were set here for values at or beyond the usual limits of such assays. The settings on record: source organism: Human immunodeficiency virus 1.
Test [31] has as its target HLA-A*30:01. The test is described as above. Conditions: source organism: Human immunodeficiency virus 1.
Test [32] addresses HLA-A*01:01. The experiment in a line: IEDB peptide-MHC binding, purified MHC/direct/fluorescence; filed as Kd, often an IC50 or EC50 that approximates it; ≥ and ≤ were set here for values at or beyond the usual limits of such assays. Conditions: source organism: Bacillus anthracis.
Test [33] has as its target HLA-A*30:01. The test is described as above. The settings on record: source organism: Bacillus cereus NVH0597-99.
Test [34] deals with HLA-C*06:02. Described as above. The settings on record: source organism: human gammaherpesvirus 4.
Test [35] has as its target HLA-B*45:06. The experiment in a line: IEDB peptide-MHC binding, purified MHC/competitive/fluorescence; filed as Kd, often an IC50 or EC50 that approximates it; ≥ and ≤ were set here for values at or beyond the usual limits of such assays. The settings on record: source organism: human gammaherpesvirus 4.
Test [36] concerns the target HLA-B*15:42. The description is as above. Conditions: source organism: human gammaherpesvirus 4.
The target in test [37] is HLA-B*27:20. The description is as above. The settings on record: source organism: human gammaherpesvirus 4.
The target of test [38] is HLA-C*04:01. The description is as above. Conditions: source organism: human gammaherpesvirus 4.
The target of test [39] is HLA-A*24:02. The test can be described thus: IEDB peptide-MHC binding, purified MHC/direct/fluorescence; filed as Kd, often an IC50 or EC50 that approximates it; ≥ and ≤ were set here for values at or beyond the usual limits of such assays. The settings on record: source organism: Giardia lamblia ATCC 50803.
The mark [40] stands for this setting: source organism: Vaccinia virus WR.
[41] abbreviates: source organism: Human immunodeficiency virus 1.

In the case of SPSVDKARAEL, the half-maximal inhibitory concentration (IC50) in [1] (source organism: Homo sapiens) is not below 200000 nM.
Take FSSCPVAY: the IC50 in [2] is not below 20000 nM; in [3], 1940 nM.
Consider KVFDKSLLY, for which the Kd in [4] is 71 nM; in [5], 5 nM; in test [6] it was not below 20000 nM; in test [7], not below 20000 nM; in test [8], 2760 nM; in test [9], 4 nM. In addition, the equilibrium dissociation constant (Kd) in [10] is not below 20000 nM; in test [11] it was not below 20000 nM; in test [12] it was 35 nM; in test [13] it was not below 20000 nM; in [14] it was not below 20000 nM; in test [15], 2.3 nM. For the same sequence, the Kd is not below 20000 nM in test [16]; 424 nM in [17]; not below 20000 nM in [18] (setting [40]); 8.2 nM in test [19]; 374 nM in [20] (setting [40]); not below 20000 nM in [21] (setting [40]). For the same sequence, the equilibrium dissociation constant (Kd) in test [22] is 1990 nM; in [23] (setting [40]), 1750 nM; in [24], 2480 nM; in [25] (setting [40]), not below 20000 nM; in test [26], not below 20000 nM; in test [27] (setting [40]), 3100 nM.
In test [1] (source organism: Mycobacterium tuberculosis), AQLLTEFAI had a concentration for half-maximal inhibition (IC50) of 25000 nM.
In test [28] (source organism: Homo sapiens), KYFIPVIEI registered a Kd not below 20000 nM.
Turning to RVERIKSEY, in test [29] (source organism: Yellow fever virus), the Kd came out at 33.8 nM.
On to KLKSLYNTV, for which the equilibrium dissociation constant (Kd) is 26.1 nM in test [18] (setting [41]); not below 20000 nM in [20] (setting [41]); 13.1 nM in [21] (setting [41]); not below 20000 nM in test [30]; not below 20000 nM in test [23] (setting [41]); not below 20000 nM in [25] (setting [41]). For the same sequence, the results for the dissociation constant Kd in test [31] and in test [27] (setting [41]) were 1.3 nM and 17.4 nM, respectively.
Turning to TTLRYPIGK, the dissociation constant (Kd) is not below 20000 nM in [32], not below 20000 nM in test [29] (source organism: Bacillus anthracis) and 81 nM in test [33].
On to RRYRRIYDL, for which the Kd in [34] was 17 nM; in test [35] it was not below 5000 nM; in test [36], not below 5000 nM; in [37] it was not above 0.1 nM; in test [38] it was not below 5000 nM.
Turning to YWLNTPFLV, the results for the dissociation constant Kd in [28] (source organism: Giardia lamblia ATCC 50803) and in [39] were not below 20000 nM and not above 1 nM, respectively.
